Test results published in IntAct's records for PubMed 21212461.

B1: NAD-dependent protein deacetylase sirtuin-3, mitochondrial (Homo sapiens), Q9NTG7 (parent)
chain: MAFWGWRAAAALRLWGRVVERVEAGGGVGPFQACGCRLVLGGRDDVSAGLRGSHGARGEPLDPARPLQRPPRPEVPRAFRRQPRAAAPSFFFSSIKGGRRSISFSVGASSVVGSGGSSDKGKLSLQDVAELIRARACQRVVVMVGAGISTPSGIPDFRSPGSGLYSNLQQYDLPYPEAIFELPFFFHNPKPFFTLAKELYPGNYKPNVTHYFLRLLHDKGLLLRLYTQNIDGLERVSGIPASKLVEAHGTFASATCTVCQRPFPGEDIRADVMADRVPRCPVCTGVVKPDIVFFGEPLPQRFLLHVVDFPMADLLLILGTSLEVEPFASLTEAVRSSVPRLLINRDLVGPLAWHPRSRDVAQLGDVVHGVESLVELLGWTEEMRDLVQRETGKLDGPDK

Variants of: B1
Conditions: with ppif_mouse Ppif

Variant | effect of a mutation on the interaction
H248Y | disrupting interaction
